Changes are numbered by the printed parent chain. Where two headings read alike, the source gives them in different places. Each block holds one binder with its values, some of them ahead of it.
Assays:
Human CCR8-ECD-Fc [1] = target: T1, Human CCR8-ECD-Fc (human); experiment: binding to HuCCR8-ECD-moFc protein (so in the source), OD45-570nm (so in the source)
T1 construct: also called HuCCR8-ECD-Fc; huCC8-ECD-Fc
T1 chain: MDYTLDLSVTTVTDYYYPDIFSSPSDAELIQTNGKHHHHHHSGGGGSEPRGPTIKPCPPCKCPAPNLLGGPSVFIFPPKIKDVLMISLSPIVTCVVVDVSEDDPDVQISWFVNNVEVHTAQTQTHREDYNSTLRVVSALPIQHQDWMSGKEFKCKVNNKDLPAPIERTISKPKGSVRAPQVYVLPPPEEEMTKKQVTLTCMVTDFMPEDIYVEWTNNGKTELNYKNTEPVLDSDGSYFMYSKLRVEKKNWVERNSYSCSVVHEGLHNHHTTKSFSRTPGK

Cynomolgus CCR8-ECD-Fc [2] = target: T2, Cynomolgus CCR8-ECD-Fc (cynomolgus monkey); experiment: binding to CyCCR8-ECD-huFc protein (so in the source), OD45-570nm (so in the source)
T2 construct: also called CyCCR8-ECD-Fc; Cynomolgus CCR8-Fc
T2 chain: T1 chain with L7P, V9M, V12M, I20S, F21L, A27G, T32R, G34D

[3] = target: T3, mouse CCR8 expressed on 293T cells (mouse, UniProt P56484 1-353); experiment: flow cytometry, mouseCCR8-293T cells, fold geomean over secondary alone
T3 construct: whole, on cells
T3 sequence (looked up): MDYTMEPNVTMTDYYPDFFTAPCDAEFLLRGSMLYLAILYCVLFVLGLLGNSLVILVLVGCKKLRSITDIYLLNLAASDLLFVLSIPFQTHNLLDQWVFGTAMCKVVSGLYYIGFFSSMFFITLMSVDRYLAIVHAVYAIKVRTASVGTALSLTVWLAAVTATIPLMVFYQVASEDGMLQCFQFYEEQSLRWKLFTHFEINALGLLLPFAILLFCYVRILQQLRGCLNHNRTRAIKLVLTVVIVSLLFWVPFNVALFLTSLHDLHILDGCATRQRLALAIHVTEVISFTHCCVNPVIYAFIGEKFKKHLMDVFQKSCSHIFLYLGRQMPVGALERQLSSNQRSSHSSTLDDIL

[4] = target: T4, human CCR8 (C-C chemokine receptor type 8) expressed on cells (human, UniProt P51685 1-355); experiment: on-cell affinity, flow cytometry on 293T cells expressing human CCR8
T4 construct: also called HuCCR8
T4 sequence (P51685 whole entry): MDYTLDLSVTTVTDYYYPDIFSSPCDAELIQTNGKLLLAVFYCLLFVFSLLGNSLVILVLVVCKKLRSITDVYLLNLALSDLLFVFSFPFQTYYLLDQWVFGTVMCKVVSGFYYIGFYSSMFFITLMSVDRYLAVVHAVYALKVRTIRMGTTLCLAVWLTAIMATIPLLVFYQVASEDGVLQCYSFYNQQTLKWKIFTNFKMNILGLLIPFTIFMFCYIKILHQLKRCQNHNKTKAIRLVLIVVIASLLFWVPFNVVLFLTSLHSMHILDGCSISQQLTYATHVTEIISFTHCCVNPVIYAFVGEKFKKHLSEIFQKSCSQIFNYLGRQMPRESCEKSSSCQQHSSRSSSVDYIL

[5] = target: T5, cynomolgus monkey CCR8 expressed on cells (cynomolgus monkey, UniProt G7NYJ2 1-355); experiment: on-cell affinity, flow cytometry on 293T cells expressing cyno CCR8
T5 construct: whole, on cells; also called cyno CCR8; CyCCR8
Target sequence in this assay (G7NYJ2 entry or part of it): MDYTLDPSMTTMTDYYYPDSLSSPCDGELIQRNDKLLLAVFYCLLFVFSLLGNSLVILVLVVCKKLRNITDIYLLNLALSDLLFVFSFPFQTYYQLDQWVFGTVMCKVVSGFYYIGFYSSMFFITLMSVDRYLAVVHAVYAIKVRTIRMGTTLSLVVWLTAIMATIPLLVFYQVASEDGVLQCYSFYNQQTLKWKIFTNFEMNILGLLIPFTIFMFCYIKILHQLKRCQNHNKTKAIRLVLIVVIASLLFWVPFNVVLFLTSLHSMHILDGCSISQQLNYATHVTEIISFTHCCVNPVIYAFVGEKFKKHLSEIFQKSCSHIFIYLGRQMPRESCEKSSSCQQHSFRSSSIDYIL

Cynomolgus CCR8-ECD-Fc [6] = target: T2, Cynomolgus CCR8-ECD-Fc; experiment: binding to CyCCR8-ECD-huFc protein (so in the source), OD45-570nm (so in the source)
[7] = target: T3, mouse CCR8 expressed on 293T cells; experiment: flow cytometry, mouseCCR8-293T cells, fold geomean over secondary alone; remark: listed apart in the source
Human CCR8-ECD-Fc [8] = target: T1, Human CCR8-ECD-Fc; experiment: binding to HuCCR8-ECD-moFc protein (so in the source), OD45-570nm (so in the source)
Human CCR8-ECD-Fc [9] = target: T1, Human CCR8-ECD-Fc; experiment: as above
Cynomolgus CCR8-ECD-Fc [10] = target: T2, Cynomolgus CCR8-ECD-Fc; experiment: binding to CyCCR8-ECD-huFc protein (so in the source), OD45-570nm (so in the source)
[11] = target: T3, mouse CCR8 expressed on 293T cells; experiment: flow cytometry, mouseCCR8-293T cells, fold geomean over secondary alone; remark: listed apart in the source
Cynomolgus CCR8-ECD-Fc [12] = target: T2, Cynomolgus CCR8-ECD-Fc; experiment: binding to CyCCR8-ECD-Fc protein, OD450-570 nm
[13] = target: T5, cynomolgus monkey CCR8 expressed on …; experiment: on-cell affinity, flow cytometry on 293T cells expressing cyno CCR8; remark: listed apart in the source
[14] = target: T4, human CCR8 (C-C chemokine receptor type …); experiment: on-cell affinity, flow cytometry on 293T cells expressing human CCR8; remark: listed apart in the source
Human CCR8-ECD-Fc [15] = target: T1, Human CCR8-ECD-Fc; experiment: binding to HuCCR8-ECD-Fc protein, OD450-570 nm
[16] = target: T3, mouse CCR8 expressed on 293T cells; experiment: flow cytometry, MoCCR8-293T cells, fold geomean over secondary alone
[17] = target: T4, human CCR8 (C-C chemokine receptor type …); experiment: flow cytometry, HuCCR8-293T cells, fold geomean over secondary alone
[18] = target: T4, human CCR8 (C-C chemokine receptor type …); experiment: on-cell affinity, flow cytometry on 293T cells expressing human CCR8; remark: listed apart in the source
Human CCR8-ECD-Fc [19] = target: T1, Human CCR8-ECD-Fc; experiment: binding to HuCCR8-ECD-Fc protein, OD450-570nm
[20] = target: T5, cynomolgus monkey CCR8 expressed on …; experiment: on-cell affinity, flow cytometry on 293T cells expressing cyno CCR8; remark: listed apart in the source
Target sequence in this assay (G7NYJ2 entry or part of it): as above

[21] = target: T3, mouse CCR8 expressed on 293T cells; experiment: flow cytometry, MoCCR8-293T cells, fold geomean over secondary alone; remark: listed apart in the source
Cynomolgus CCR8-ECD-Fc [22] = target: T2, Cynomolgus CCR8-ECD-Fc; experiment: binding to CynoCCR8-ECD-Fc protein, OD450-570nm
[23] = target: T3, mouse CCR8 expressed on 293T cells; experiment: flow cytometry, MoCCR8-293T cells, fold geomean over secondary alone; remark: listed apart in the source
Human CCR8-ECD-Fc [24] = target: T1, Human CCR8-ECD-Fc; experiment: binding to HuCCR8-ECD-Fc protein, OD450-570 nm
Cynomolgus CCR8-ECD-Fc [25] = target: T2, Cynomolgus CCR8-ECD-Fc; experiment: binding to CyCCR8-ECD-Fc protein, OD450-570 nm
[26] = target: T5, cynomolgus monkey CCR8 expressed on …; experiment: flow cytometry, CynoCCR8-293T cells, fold geomean over secondary alone
Human CCR8-ECD-Fc [27] = target: T1, Human CCR8-ECD-Fc; experiment: binding to HuCCR8-ECD-Fc protein, OD450-570 nm
Cynomolgus CCR8-ECD-Fc [28] = target: T2, Cynomolgus CCR8-ECD-Fc; experiment: binding to CyCCR8-ECD-Fc protein, OD450-570 nm
[29] = target: T3, mouse CCR8 expressed on 293T cells; experiment: flow cytometry, MoCCR8-293T cells, fold geomean over secondary alone; remark: listed apart in the source

B2: anti-CCR8-1-5 (antibody, V domains shown)
VH: QVQLVQSGAEVKKPGASVKVSCKASGYTFTSYYMHWVRQAPGQGLEWMGIINPSGGSTSYAQKFQGRVTMTRDTSTSTVYMELSSLRSEDTAVYYCARGVGNGFRFDYWGQGTLVT
VL: QSALTQPPSVSGSPGQSITISCSGTSSDVGSYNLVSWYQQEPGKAPKLIIYEVNKRPSGVSNRFSGSKSGNTASLTISGLQAEDEADYHCSSYAGSSTYVVFGGGTKLTVL
notes: Parental-1 heavy chain with a shuffled lambda light chain; Human IgG expressed in CHO cells
- Kd [5]: 48.6 nM
- binding result (Cynomolgus CCR8-ECD-Fc [6]): binds
- binding result [7]: no binding (tested: 10 ug/ml)
- binding result (Human CCR8-ECD-Fc [8]): binds
- Kd [4]: 1.36 nM

B3: anti-CCR8-1-4 (antibody, V domains shown)
VH: B2 VH
VL: QSALTQPASVSGSPGQSITISCSGTSSNIGKYNLVSWYQQHPGEAPTLLIYEATKRPSGVSNRFSGSKSGNTASLTISGLQAEDEADYICSSYAGSRVFVVFGGGTKLTVL
notes: as for B2
- Kd [5]: 35.9 nM
- binding result (Human CCR8-ECD-Fc [9]): binds
- binding result (Cynomolgus CCR8-ECD-Fc [10]): binds
- binding result [11]: no binding (tested: 10 ug/ml)
- Kd [4]: 0.28 nM

B4: anti-CCR8-2 (antibody, V domains shown)
VH: EVQLLESGGGLVQPGGSLRLSCAAGGFTFSAYTMNWVRQAPGKGLEWVSAISASGGRTYYADSVKGRFTISRDNSKNTLYLQMNSLRAEDTAVYYCARRFARGWFDPWGQGTLVTVSS
VL: QSVLTQPPSVSAAPGQKVTISCSGSSSNIGNNYVSWYQQLPGTAPKLLIYDNNKRPSGIPDRFSGSKSGTSATLGITGLQTGDEADYYCGTWDSSLSAWVFGGGTKLT
notes: Cloned into mammalian expression vectors; human IgG; also called heavy chain H23727
- binding result (Cynomolgus CCR8-ECD-Fc [12]): binds
- Kd [13]: 0.94 nM
- Kd [14]: 0.41 nM
- binding result (Human CCR8-ECD-Fc [15]): binds
- binding result [16]: no binding (tested: 10 ug/ml)

Further lines, results first:

- binding result (Human CCR8-ECD-Fc [1]): binds
- binding result (Cynomolgus CCR8-ECD-Fc [2]): binds
- binding result [3]: no binding (tested: 10 ug/ml)
- Kd [4]: 1.38 nM
B1: anti-CCR8-1-3 (antibody, V domains shown)
VH: B2 VH
VL: B2 VL with S31I, E41H, N54I, V60I, S67F, H89Y, S96P, S97V
notes: as for B2

- EC50 (read off the curve) [17]: ~2 µg/mL
- Kd [18]: 1.5 nM
- EC50 (read off the curve) (Human CCR8-ECD-Fc [19]): ~0.04 µg/mL
- Kd [20]: 4.5 nM
- binding result [21]: no binding (tested: 10 ug/ml)
- EC50 (read off the curve) (Cynomolgus CCR8-ECD-Fc [22]): ~0.04 µg/mL
B5: anti-CCR8-2-6 (antibody, V domains shown)
VH: EVQLVESGGGLVQPGRSLRLSCAASGFTFDDYAMHWVRQAPGKGLEWVSGISWNSGSIGYADSVKGRFTISRDNSKNSLYLQMNSLRAEDTALYYCARGRVSYRESLRFDYWGQGTLVT
VL: B4 VL
notes: Human IgG

- Kd [13]: 1.09 nM
- binding result [23]: no binding (tested: 10 ug/ml)
- binding result (Human CCR8-ECD-Fc [24]): binds
- Kd [14]: 0.54 nM
- binding result (Cynomolgus CCR8-ECD-Fc [25]): binds
B6: anti-CCR8-2-1 (antibody, V domains shown)
VH: B4 VH with G25R, T28I, A31G, N35L, S52T
VL: B4 VL
notes: Human IgG from a mammalian expression vector

- EC50 (read off the curve) [26]: ~1 µg/mL
- Kd [13]: 1.6 nM
- binding result (Human CCR8-ECD-Fc [27]): binds
- Kd [14]: 0.8 nM
- binding result (Cynomolgus CCR8-ECD-Fc [28]): binds
- binding result [29]: no binding (tested: 10 ug/ml)
B7: anti-CCR8-2-2 (antibody, V domains shown)
VH: EVQLLESGGGLVQPGGSLRLSCAAGGFTFSAYTMNWVRQAPGKGLEWVSAISASGGRTYYADSVKGRFTISRDNSKNTLYLQMNSLRAEDTAVYYCARRFARGWFDPWGQGTLVT
VL: QSVLTQPPSVSAAPGQRVTISCSGSTSNIGNHYVSWYQQLPRAVPKLVIYDNDKRPSGISDRFSGSRSGTSATLDISGLQAGDEADYYCATWDYSLTAVVFGGGTKLTVL
notes: Heavy chain of anti-CCR8-2 (H23727) cross-paired with a shuffled lambda light chain; Human IgG

— US20210238292A1 (VACCINEX, published 2021)
